Where no end group is shown, it is not given here. [ ]: non-standard residue; d: D form. Bip = N[C@@H](Cc1ccc(-c2ccccc2)cc1)C(=O)O
Target: Full-length human glucagon-like peptide 1 receptor (human, UniProt P43220 24-463)
Assay: cell-based or functional assay

cAMP production (EC50), cAMP cell-based assay in CHO-GLP-1R-19 cells	Binder
> 1 millimolar	HAEGTFTSD-NH2
1.1 µM	HAEGTFTSD[Bip][Bip]-NH2 (N-terminus assumed; SMILES C[C@H](NC(=O)[C@@H](N)Cc1c[nH]cn1)C(=O)N[C@@H](CCC(=O)O)C(=O)NCC(=O)N[C@H](C(=O)N[C@@H](Cc1ccccc1)C(=O)N[C@H](C(=O)N[C@@H](CO)C(=O)N[C@@H](CC(=O)O)C(=O)N[C@@H](Cc1ccc(-c2ccccc2)cc1)C(=O)N[C@@H](Cc1ccc(-c2ccccc2)cc1)C(N)=O)[C@@H](C)O)[C@@H](C)O) [GLP-1 11-mer peptide analog His-Ala-Glu-Gly-Thr-Phe-Thr-Ser-Asp-Bip-Bip-NH2]

From US20070287670A1 (Bristol-Myers Squibb, published 2007)
